Patent US9493781B2, “Synthetic brassica-derived chloroplast transit peptides” (DOW AGROSCIENCES LLC, priority 2012, dated 2016)

Assays:
[1] = system: tobacco (cv. Petit Havana); experiment: Postemergence glyphosate tolerance of dgt-28 transformed T1 and T2 tobacco; format: in vivo; conditions: 14 DAT, 2240 g ae/ha glyphosate (DURANGO DMA)
Description: Postemergence herbicide tolerance in dgt-28 transformed T1 tobacco. T1 resistant plants from each event used in the progeny testing were given unique identifiers and sampled for zygosity analyses of the dgt-28 gene. Zygosity data were used to assign 2 hemizygous and 2 homozygous replicates to each rate of glyphosate applied allowing for a total of 4 replicates per treatment. These plants were compared against wildtype Petite havana tobacco. All plants were sprayed with a track sprayer set at 187 L/ha. The plants were sprayed from a range of 560-4480 g ae/ha DURANGO DMA™. All applications were formulated in water with the addition of 2% w/v ammonium sulfate (AMS). Plants were evaluated at 7 and 14 days after treatment. Plants were assigned an injury rating with respect to overall visual stunting, chlorosis, and necrosis. The T1 generation is segregating, so some variable response is expected due to difference in zygosity.
Rates of DURANGO DMA™ ranging from 420-3360 g ae/ha glyphosate were applied to 2-3 leaf tobacco as previously described.

[2] = system: chloroplasts of tobacco cells; experiment: Tobacco transient assay: confocal microscopy of TraP-YFP localization; format: cell-based, Nicotiana benthamiana; conditions: Agrobacterium-infiltrated tobacco leaves
Description: The Trap8 and TraP9 chimeric chloroplast transit peptide sequences were initially tested via a transient in planta assay. Polynucleotide sequences which encode the Trap8 (SEQ ID NO:5) and TraP9 (SEQ ID NO:6) chimeric chloroplast transit peptide sequences were synthesized. A linker sequence (SEQ ID NO:7) was incorporated between the TraP sequence and the yfp coding sequence. The resulting constructs contained two plant transcription units (PTU). The first PTU was comprised of the Arabidopsis thaliana Ubiquitin 10 promoter (AtUbi10 promoter; Callis, et al., (1990) J. Biol. Chem., 265: 12486-12493), TraP-yellow fluorescent protein fusion gene (TraP-YFP; US Patent App. 2007/0298412), and Agrobacterium tumefaciens ORF 23 3′ untranslated region (AtuORF23 3′UTR; U.S. Pat. No. 5,428,147). […]
Agrobacterium-infiltrated tobacco leaves were severed from the plant, and placed into a petri-dish with water to prevent dehydration. The infiltrated tobacco leaves were observed under blue light excitation with long-pass filter glasses held in place using a Dark Reader Hand Lamp™ (Clare Chemical Research Co.; Dolores, Colo.) to identify undamaged areas of the leaf that were successfully expressing the YFP reporter proteins. […]

B1: TraP8: chimeric chloroplast transit peptide SEQ ID NO:3; N-terminus from Brassica napus EPSPS CTP, C-terminus from Brassica rapa (protein)
chain: MAQSSRICHGVQNPCVIISNLSKSNQNKSPFSVSLKTHQQQRRAYQISSWGLKKSNNGSVIRPVK
modifications: TraP8 chimeric chloroplast transit peptide
notes: N-terminus from Brassica napus EPSPS CTP, C-terminus from Brassica rapa
% Injury Ave [1]: 9.3% | Localization of YFP fluorescence in tobacco leaf cells [2]: accumulated within the chloroplasts
